Source: doi:10.1101/2025.02.04.635266

Molecular target: IgG1-DNP-E430G (human)
Assay: single molecule force spectroscopy

DNP-unspecific IgG1-E430G (tip-linked) (antibody)
koff: 1.8 s⁻¹
